Blank lines part the entries; values can stand above or below the molecule they belong to.
What was measured:
[1] = system: stomata of Arabidopsis epidermal peels; test: Stomatal aperture in epidermal peels of Col-0 and AtGCN4 overexpressor lines; assay type: cell-based; details: coronatine treatment
Procedure: A representative histogram is depicted of stomatal aperture in Arabidopsis plant epidermal peels from wild-type Col-0 and GCN4-overexpressing (AtGCN4-OE6 and AtGCN4-OE16) lines measured 4 hours after treatment with MES buffer, COR, ABA, or COR+ABA.
Upon detection of PAMPs, stomata rapidly closes to prevent entry of the pathogen into apoplast (Melotto et al., 2006; Lee et al., 2013). […] Epidermal peels of AtGCN4 overexpressing lines were used to investigate whether stomata reopen after treatment with MES buffer (stomata opening buffer; control) or the host pathogen P. syringae pv. tomato DC3000. In wild-type Col-0, stomata reopened 3 hpi, while in the AtGCN4 overexpressor lines (AtGCN4-OE6 and AtGCN4-OE16), stomata remained closed even 4 hpi with P. syringae pv. tomato DC3000. Stomatal aperture was measured after ABA and coronatine treatments in order to investigate stomatal function in AtGCN4 overexpressor lines. ABA treatment induces stomatal closure in plants. After ABA treatment, the stomatal aperture size was reduced due to closing in both wild-type Col-0 and the AtGCN4 overexpressor lines.

[2] = target: T1, Jasmonate-Zim-Domain Protein 9 (JAZ9, At1g70700), full-length, Q8W4J8
T1 chain: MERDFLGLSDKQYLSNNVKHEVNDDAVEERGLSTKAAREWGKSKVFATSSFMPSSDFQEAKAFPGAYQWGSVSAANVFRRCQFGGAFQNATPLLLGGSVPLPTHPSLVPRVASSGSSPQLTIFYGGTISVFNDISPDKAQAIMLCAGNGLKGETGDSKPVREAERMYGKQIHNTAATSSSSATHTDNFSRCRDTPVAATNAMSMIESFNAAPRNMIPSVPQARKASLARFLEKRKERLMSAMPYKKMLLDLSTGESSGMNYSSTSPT

[3] = target: T2, AtGCN4 (Arabidopsis thaliana GCN4, general control non-repressible 4, At3G54540) (Arabidopsis thaliana, UniProt Q9M1H3 1-723); test: title of Example 19 (yeast two-hybrid, BiFC)
T2 construct: Yeast two-hybrid fusion; in BiFC the C-terminal half of YFP was fused to the N-terminus of AtGCN4 (c-YFP-AtGCN4); also called c-YFP-AtGCN4
T2 sequence: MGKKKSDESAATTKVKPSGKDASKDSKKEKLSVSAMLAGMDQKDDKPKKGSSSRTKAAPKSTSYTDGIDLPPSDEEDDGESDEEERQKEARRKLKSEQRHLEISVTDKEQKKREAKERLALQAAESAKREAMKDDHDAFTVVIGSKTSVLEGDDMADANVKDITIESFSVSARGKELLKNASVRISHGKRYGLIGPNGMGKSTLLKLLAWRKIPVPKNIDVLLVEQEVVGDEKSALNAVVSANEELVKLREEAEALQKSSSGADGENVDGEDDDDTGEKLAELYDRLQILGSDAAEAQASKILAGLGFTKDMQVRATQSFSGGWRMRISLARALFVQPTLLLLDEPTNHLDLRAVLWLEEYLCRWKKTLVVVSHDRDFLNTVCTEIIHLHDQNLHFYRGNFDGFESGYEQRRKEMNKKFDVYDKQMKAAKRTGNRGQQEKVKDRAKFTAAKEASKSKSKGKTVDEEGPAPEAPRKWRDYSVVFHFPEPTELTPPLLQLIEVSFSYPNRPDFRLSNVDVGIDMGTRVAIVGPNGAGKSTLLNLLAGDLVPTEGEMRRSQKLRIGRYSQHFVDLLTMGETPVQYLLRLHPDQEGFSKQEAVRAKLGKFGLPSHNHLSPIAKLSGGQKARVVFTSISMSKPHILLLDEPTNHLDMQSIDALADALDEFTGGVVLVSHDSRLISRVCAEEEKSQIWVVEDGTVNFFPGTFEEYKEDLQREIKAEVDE
From the text: Stable transgenic lines were developed expressing GFP fused to the C-terminal end of AtGCN4 and driven under its native promoter. AtGCN4-GFP localized in guard cells, plasma membrane, and cytoplasm. Without being limited by theory, as AtGCN4 localized in the plasma membrane and guard cells, and plays role in the stomatal function, the present inventors reasoned that AtGCN4 interacts with other proteins responsible for stomatal function, such as SLAC1 and RIN4. SLAC1 closes stomata on ABA signaling (Vahisalu et al., 2008) and RIN4 activates a plasma membrane H⁺-ATPase and opens stomata (Liu et al., 2009). A yeast two-hybrid system between GCN4:SLAC1 and GCN4:RIN4 was used to investigate potential protein-protein interactions. AtGCN4 interacted with SLAC1 and RIN4. A BiFC assay (Hu et al., 2002) was used to verify these interactions in planta. AtGCN4 was co-transformed in yeast with either SLAC1 or RIN4 to observe protein-protein interaction using a yeast two-hybrid system. […] Protein-protein interactions were observed as yellow fluorescence with an equivalent bright field image. […] Protein-protein interactions were observed as yellow fluorescence while the plasma membrane was visualized as red fluorescence. […]

Molecule: CC[C@H]1C=C(C(=O)N[C@@]2(C(=O)O)C[C@@H]2CC)[C@H]2CCC(=O)[C@H]2C1 [coronatine]
Stomatal aperture size ([1]; Col-0 plants): increased aperture size | Stomatal aperture size ([1]; GCN4 overexpressor lines): did not increase

B1: His-tagged NHR1A protein expressed in E. coli (full-length recombinant AtNHR1A, N-terminal His-tagged fusion protein) (protein)
chain: MTIVSTCCPFGLSNVTKCINFVQIKEAKTMVKYNFKKITVVPNGKQFVDIVLSRTQRQTPTVVHKGDRICKLRSFYMRKVKFTESNFNEKLSAIIDEFPRLKEIQPFYEDLLHVLYNKDHYKLALGQVNTAKNKISKIAMDYVKLLKHGDSLYRCKCLKVAALGRMCTVMKGIGPSLAYLEQVRQHIARLPSIDPNTRTLLICGCPNVGKSSFMNKVTRADVAVQPYAFTTKSLFLGHTDYKCLRYQVIDTPGLLDREIEDRNIIELCSITALAHIRAAVLFFLDISGSCGYTIAQQASLFHNIKSVFKNKPLVIVCNKTDLMPMENLSEEDRKLIEEMKDEAMKTEMGASEEAVILEMSTLTEEGVMSRLLDQRVAAKMKSKKIGDHLNRFHVAMPKSRDDQERLPCIPQVAGEKEKRKTEKDLEDENGGAGVYSASLKKNYILAKEEWKDDIIPEICDCHNVADFVDSDILNRLEELTSEESLRKAEEEEVGFEIEGEELTEKEKNDLAAIRKKKALLIEESRLKKSNAQNRAAVPRKFDKDKKFTRKRMGRELSSLGLDPSSALNRARSKSRGRKRERYDDLSNDAMDVDVNDDEQHKKKKMCLRSKSRSLSRSRSVSRPPHEVVPGEGFKDSSQKIKAIKIGHKSHRKRDKAARRGEADRVIPSLKPKHLFSGKRGNGKNQRR
rate of GTP hydrolysis [2]: in the presence of JAZ9, the rate of GTP hydrolysis significantly decreased

Further lines, results first:

binding result [3]: binds
B2: SLAC1 (Slow Anion Channel-Associated 1) (other, UniProt Q9LD83 1-556, looked up)
chain: MERKQSNAHSTFADINEVEDEAEQELQQQENNNNKRFSGNRGPNRGKQRPFRGFSRQVSLETGFSVLNRESRERDDKKSLPRSGRSFGGFESGGIINGGDGRKTDFSMFRTKSTLSKQKSLLPSIIRERDIENSLRTEDGETKDDSINENVSAGRYFAALRGPELDEVKDNEDILLPKEEQWPFLLRFPIGCFGICLGLSSQAVLWLALAKSPATNFLHITPLINLVVWLFSLVVLVSVSFTYILKCIFYFEAVKREYFHPVRVNFFFAPWVVCMFLAISVPPMFSPNRKYLHPAIWCVFMGPYFFLELKIYGQWLSGGKRRLCKVANPSSHLSVVGNFVGAILASKVGWDEVAKFLWAVGFAHYLVVFVTLYQRLPTSEALPKELHPVYSMFIAAPSAASIAWNTIYGQFDGCSRTCFFIALFLYISLVARINFFTGFKFSVAWWSYTFPMTTASVATIKYAEAVPGYPSRALALTLSFISTAMVCVLFVSTLLHAFVWQTLFPNDLAIAITKRKLTREKKPFKRAYDLKRWTKQALAKKISAEKDFEAEEESHH
notes: Yeast two-hybrid fusion; in BiFC the N-terminal half of YFP was fused to the C-terminus of SLAC1 (SLAC1-nYFP); also called SLAC1-nYFP

binding result [3]: binds
B3: RIN4 (Rpm1 Interaction Protein 4) (other, UniProt Q8GYN5 1-211, looked up)
chain: MARSNVPKFGNWEAEENVPYTAYFDKARKTRAPGSKIMNPNDPEYNSDSQSQAPPHPPSSRTKPEQVDTVRRSREHMRSREESELKQFGDAGGSSNEAANKRQGRASQNNSYDNKSPLHKNSYDGTGKSRPKPTNLRADESPEKVTVVPKFGDWDENNPSSADGYTHIFNKVREERSSGANVSGSSRTPTHQSSRNPNNTSSCCCFGFGGK
notes: Yeast two-hybrid fusion; in BiFC the N-terminal half of YFP was fused to the C-terminus of RIN4 (RIN4-nYFP); also called RIN4-nYFP
